Each block holds one substance with its values, some of them ahead of it.
Target: β-arrestin 2-Rluc (UniProt P32121)
Experiment: BRET (β-arrestin 2 recruitment)
Settings: point at the highest AngII dose, read off a plot
[1] = HEK293 cells, left plot, Log[AII] = -5 M, parent: est. 0.36
[2] = Log[AngII] = -4 M, parent: est. 0.086
[3] = HEK293 cells, Log[AII] = -5 M, parent: est. 0.37
[4] = HEK293 cells, right plot, Log[AII] = -5 M, parent: est. 0.35

Substance: YFP-tagged WT angiotensin II type 1 receptor (AT1 receptor) (from UniProt P30556) F8.54W
response [1]: 0.26 ΔBRET

Substance: YFP-tagged WT angiotensin II type 1 receptor (AT1 receptor) (from UniProt P30556) Y7.53I
response [3]: 0.41 ΔBRET

Substance: YFP-tagged WT angiotensin II type 1 receptor (AT1 receptor) (from UniProt P30556) F1.48A; L1.52A; I1.57A
response [2]: 0.065 ΔBRET

Substance: YFP-tagged WT angiotensin II type 1 receptor (AT1 receptor) (from UniProt P30556) Y7.53A
response [4]: 0.055 ΔBRET

Substance: YFP-tagged WT angiotensin II type 1 receptor (AT1 receptor) (from UniProt P30556) N3.35A
response [3]: 0.12 ΔBRET

Continued, values first:

response [2]: 0.006 ΔBRET
Substance: YFP-tagged WT angiotensin II type 1 receptor (AT1 receptor) (from UniProt P30556) N7.49A; P7.50A; F7.55A

response [1]: 0.09 ΔBRET
Substance: YFP-tagged WT angiotensin II type 1 receptor (AT1 receptor) (from UniProt P30556) F7.55W

response [4]: 0.25 ΔBRET
Substance: YFP-tagged WT angiotensin II type 1 receptor (AT1 receptor) (from UniProt P30556) N7.49A

response [1]: 0.05 ΔBRET
Substance: YFP-tagged WT angiotensin II type 1 receptor (AT1 receptor) (from UniProt P30556) G1.49L

response [2]: 0.006 ΔBRET
Substance: YFP-tagged WT angiotensin II type 1 receptor (AT1 receptor) (from UniProt P30556) K8.49A; F8.50A; K8.51A; Y8.53A; F8.54A

response [3]: 0.36 ΔBRET
Substance: YFP-tagged WT angiotensin II type 1 receptor (AT1 receptor) (from UniProt P30556) D2.50N

— publication PMC8342441
